The source of these data is paper PMC10995192 (Nature Communications, 2024).

Some results are limits rather than exact numbers.

The term Kd denotes a measure of binding affinity in units of concentration. What is called koff is a measure of how fast the partners let go of each other. The kon is a measure of how fast the partners come together.

The target of assay [1] is SNS-101, fully human monoclonal IgG1 kappa antibody against VISTA (human). Nature of the assay: SPR; SNS-101 captured on IgG capture chip, VISTA-His as analyte (0-30 nM), 25 C, PBS 0.05% Tween 20, pH 6.0; 1:1 Langmuir MTL fit. Background: Surface plasmon resonance follows binding to a sensor surface in real time, without labels.
Assay [2] has the same target. Nature of the assay: SPR; SNS-101 captured on IgG capture chip, VISTA-His as analyte (0-240 nM), 25 C, PBS 0.05% Tween 20, pH 6.8; 1:1 Langmuir MTL fit.
Assay [3] shares this target. Nature of the assay: SPR; SNS-101 captured on IgG capture chip, VISTA-His as analyte (0-480 nM), 25 C, PBS 0.05% Tween 20, pH 7.2; 1:1 Langmuir MTL fit.
Assay [4] has the same target. Kind of assay: SPR; SNS-101 captured on IgG capture chip, VISTA-His as analyte (0-30 nM), 25 C, PBS 0.05% Tween 20, pH 5.8; 1:1 Langmuir MTL fit.
Assay [5] has the same target. Nature of the assay: SPR; SNS-101 captured on IgG capture chip, VISTA-His as analyte (0-240 nM), 25 C, PBS 0.05% Tween 20, pH 6.6; 1:1 Langmuir MTL fit.
For assay [6] the target is unchanged. Kind of assay: SPR; SNS-101 captured on IgG capture chip, VISTA-His as analyte (0-240 nM), 25 C, PBS 0.05% Tween 20, pH 6.4; 1:1 Langmuir MTL fit.
Assay [7] shares this target. Nature of the assay: SPR; SNS-101 captured on IgG capture chip, VISTA-His as analyte (0-480 nM), 25 C, PBS 0.05% Tween 20, pH 7.4; 1:1 Langmuir MTL fit.
Assay [8] shares this target. Nature of the assay: SPR; SNS-101 captured on IgG capture chip, VISTA-His as analyte (0-30 nM), 25 C, PBS 0.05% Tween 20, pH 6.2; 1:1 Langmuir MTL fit.
Assay [9] has the same target. Nature of the assay: SPR; SNS-101 captured on IgG capture chip, VISTA-His as analyte (0-480 nM), 25 C, PBS 0.05% Tween 20, pH 7.0; 1:1 Langmuir MTL fit.
For assay [10], the target named is SNS-101, fully human monoclonal IgG1 kappa anti-VISTA antibody (human). Nature of the assay: SPR; SNS-101 captured on IgG capture chip, VISTA-His (0-240 nM) as analyte; pH 6.6, PBS + 0.05% Tween 20, 25 °C; 1:1 Langmuir MTL fit; pH series.
Assay [11] shares this target. Kind of assay: SPR; SNS-101 captured on IgG capture chip, VISTA-His (0-30 nM) as analyte; pH 5.8, PBS + 0.05% Tween 20, 25 °C; 1:1 Langmuir MTL fit; pH series.
Assay [12] deals with PSGL-1-19mer-Fc (19 N-terminal residues of human PSGL-1 fused to human IgG1-Fc) (human) (UniProt Q14242). Nature of the assay: SPR; PSGL-1-19mer-Fc captured on IgG capture chip, VISTA-His (0-960 nM) as analyte; pH 6.0, PBS + 0.05% Tween-20; KD from equilibrium analysis.
Assay [13] has as its target SNS-101, fully human monoclonal IgG1 kappa anti-VISTA antibody (human). Kind of assay: SPR; SNS-101 captured on IgG capture chip, VISTA-His (0-480 nM) as analyte; pH 7.2, PBS + 0.05% Tween 20, 25 °C; 1:1 Langmuir MTL fit; pH series.
Assay [14] has the same target. Kind of assay: SPR; SNS-101 captured on IgG capture chip, VISTA-His (0-30 nM) as analyte; pH 6.0, PBS + 0.05% Tween 20, 25 °C; 1:1 Langmuir MTL fit; pH series.
Assay [15] shares this target. Nature of the assay: SPR; SNS-101 captured on IgG capture chip, VISTA-His (0-480 nM) as analyte; pH 7.4, PBS + 0.05% Tween 20, 25 °C; 1:1 Langmuir MTL fit; pH series.
Assay [16] shares this target. Nature of the assay: SPR; SNS-101 captured on IgG capture chip, VISTA-His (0-480 nM) as analyte; pH 7.0, PBS + 0.05% Tween 20, 25 °C; 1:1 Langmuir MTL fit; pH series.
For assay [17] the target is unchanged. Kind of assay: SPR; SNS-101 captured on IgG capture chip, VISTA-His (0-240 nM) as analyte; pH 6.4, PBS + 0.05% Tween 20, 25 °C; 1:1 Langmuir MTL fit; pH series.
Assay [18] has the same target. Kind of assay: SPR; SNS-101 captured on IgG capture chip, VISTA-His (0-240 nM) as analyte; pH 6.8, PBS + 0.05% Tween 20, 25 °C; 1:1 Langmuir MTL fit; pH series.
Assay [19] shares this target. Nature of the assay: SPR; panel of VISTA-His variants and wild type as analytes over captured SNS-101; pH 5.8 (PBS, 0.05% Tween-20), 25 °C.
Assay [20] has the same target. Nature of the assay: SPR; SNS-101 captured on IgG capture chip, VISTA-His (0-30 nM) as analyte; pH 6.2, PBS + 0.05% Tween 20, 25 °C; 1:1 Langmuir MTL fit; pH series.
Assay [21] has as its target T1, VISTA-His H98A/H100A/H154A/H155A/R159A (human, UniProt Q9H7M9, H98A | H100A | H154A | H155A | R159A).
T1 construct: VISTA, human; probably the extracellular domain; source: Expi293, purified (Ni-NTA)
Kind of assay: SPR; panel of VISTA-His variants and wild type as analytes over captured SNS-101; pH 5.8 (PBS, 0.05% Tween-20), 25 °C. Particulars: both partners purified.

Assay [22] has as its target T2, C-terminal biotinylated hVISTA-Fc fusion protein (R&D Systems AVI7126-050) (human, UniProt Q9H7M9 33-194, biotin, C-terminal).
T2 construct: VISTA, human; source: bought: R&D Systems AVI7126-050
T2 sequence (looked up): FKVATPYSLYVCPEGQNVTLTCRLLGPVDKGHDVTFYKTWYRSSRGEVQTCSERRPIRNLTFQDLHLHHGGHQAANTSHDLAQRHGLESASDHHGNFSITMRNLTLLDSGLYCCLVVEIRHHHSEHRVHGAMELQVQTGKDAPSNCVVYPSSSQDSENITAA
Nature of the assay: ELISA; partner proteins coated at 5 µg/ml, biotinylated hVISTA-Fc serially diluted in 1% NFDM in PBS at pH 6.0; HRP-streptavidin. The conditions noted are these: both partners purified. For orientation: In an ELISA, binding on a coated surface is turned into a signal by an enzyme label.

Sequence of PSGL-1-19mer-Fc (19 N-terminal residues of human PSGL-1 fused to human IgG1-Fc) (human) (Q14242 42-412): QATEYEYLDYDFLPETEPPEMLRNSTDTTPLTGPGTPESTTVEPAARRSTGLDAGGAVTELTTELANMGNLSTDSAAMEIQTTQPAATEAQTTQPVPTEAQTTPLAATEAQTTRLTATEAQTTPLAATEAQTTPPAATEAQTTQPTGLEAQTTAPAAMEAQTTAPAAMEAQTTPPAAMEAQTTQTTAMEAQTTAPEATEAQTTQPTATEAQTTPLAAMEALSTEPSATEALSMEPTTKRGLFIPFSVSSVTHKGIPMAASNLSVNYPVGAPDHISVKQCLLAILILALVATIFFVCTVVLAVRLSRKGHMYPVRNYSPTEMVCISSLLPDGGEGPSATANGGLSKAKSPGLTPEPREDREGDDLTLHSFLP

As to “VISTA-His (human VISTA, V-domain immunoglobulin suppressor of T-cell activation, with His tag) (from UniProt Q9H7M9 33-311) (natural protein)”, the Kd in [1] turned out to be 0.779 nM; in [2] it was 40.1 nM; in assay [3], 134 nM; in assay [5], 18.5 nM; in assay [6], 5.96 nM; in assay [8], 1.78 nM. In assay [9], the Kd was determined as 77 nM. Also, the koff in assay [1] is 0.00213 s⁻¹; in assay [2] it was 0.00842 s⁻¹; in assay [3], 0.0147 s⁻¹; in assay [4] it was 0.00129 s⁻¹; in assay [5] it was 0.00566 s⁻¹; in assay [6], 0.00321 s⁻¹. Further, the koff in [7] amounted to 0.0308 s⁻¹; in [8] it was 0.00219 s⁻¹; in [9], 0.0101 s⁻¹. Besides, the kon in assay [1] stood at 2.74e+06 M⁻¹ s⁻¹; in assay [2], 210000 M⁻¹ s⁻¹; in assay [3] it was 110000 M⁻¹ s⁻¹; in [4], 3.68e+06 M⁻¹ s⁻¹; in assay [5], 306000 M⁻¹ s⁻¹; in [6], 539000 M⁻¹ s⁻¹. The kon in [7] was 87200 M⁻¹ s⁻¹; in assay [8] it was 1.23e+06 M⁻¹ s⁻¹; in assay [9], 131000 M⁻¹ s⁻¹.

On to “VISTA-His (wild-type human VISTA) (from UniProt Q9H7M9 33-311) (natural protein)”, for which the Kd in [10] was found to be 18.5 nM; in [12], 600 nM; in assay [13], 134 nM; in assay [14], 0.779 nM; in [16] it was 77 nM; in assay [17], 5.96 nM. Besides, the Kd in [18] was 40.1 nM; in assay [19], 0.7 nM; in assay [20], 1.78 nM. The koff in assay [10] amounted to 0.00566 s⁻¹; in assay [11], 0.00129 s⁻¹; in assay [13], 0.0147 s⁻¹; in assay [14] it was 0.00213 s⁻¹; in assay [15], 0.0308 s⁻¹; in assay [16] it was 0.0101 s⁻¹. Besides, the koff in [17] was 0.00321 s⁻¹; in assay [18] it was 0.00842 s⁻¹; in [19], 0.0022 s⁻¹; in assay [20], 0.00219 s⁻¹. Also, the kon in assay [10] turned out to be 306000 M⁻¹ s⁻¹; in assay [11], 3.68e+06 M⁻¹ s⁻¹; in assay [13], 110000 M⁻¹ s⁻¹; in assay [14], 2.74e+06 M⁻¹ s⁻¹; in assay [15], 87200 M⁻¹ s⁻¹; in [16], 131000 M⁻¹ s⁻¹. The kon in [17] was determined as 539000 M⁻¹ s⁻¹; in assay [18], 210000 M⁻¹ s⁻¹; in [19], 3.2e+06 M⁻¹ s⁻¹; in assay [20] it was 1.23e+06 M⁻¹ s⁻¹.

B1: SNS-101, fully human monoclonal IgG1 kappa anti-VISTA antibody (antibody, V domains shown)
VH: EVQLVESGGGLVQPGGSLRLSCAASGFTFDDYSMNWVRQAPGKGLEWVSYISSDADTIYYADSVKGRFTISRDNAKNSLYLQMNSLRAEDTAVYYCAREAGGVLGRVDFQHWGQGTLVTVSS
VL: DIQLTQSPSSLSASVGDRVTITCQASQDISNYLNWYQQKPGKAPKLLIYDASNLGTGVPSRFSGSGSGTDFTFTISSLQPEDIATYYCQQADFVPPWTFGGGTKVEIK
notes: the Fab part is in PDB 8TBQ; human IgG1 heavy chain; the light chain is in PDB 8TBQ; human kappa light chain; IgG1 kappa; captured on an IgG capture sensor chip in SPR; source: ExpiCHO, transient transfection, purified (Protein A)
In turn, B1 came in with a Kd in assay [21] above 960 nM.

B2: hSyndecan-2 (R&D Systems 2965-SD) (natural protein, human, UniProt P34741 19-144, looked up)
chain: ESRAELTSDKDMYLDNSSIEEASGVYPIDDDDYASASGSGADEDVESPELTTSRPLPKILLTSAAPKVETTTLNIQNKIPAQTKSPEETDKEKVHLSDSERKMDPAEEDTNVYTEKHSDSLFKRTE
notes: Syndecan-2, human; source: bought: R&D Systems 2965-SD
Take B2: the binding result in [22] was “binds”.
